{
  "source": "the supplement of paper PMC10567573",
  "assay": "protein stability index of a GFP-peptide fusion (GPS, HEK-293T) (PSI 1-6); higher = more stable",
  "key": {"[1]": {"conditions": "parent: IOH13764_23, c terminus: a fixed tail appended"}},
  "data": [
    {"protein": "WTVANMEEIKKLTTDPDLILEVLR", "note": "[LARP4 WT]", "values": [
      {"measurement": "protein stability index", "setting": "parent: IOH13489_15, c terminus: a fixed tail appended", "result": 2.1}
    ]},
    {"protein": "DLSAANEKNLLLQNQVDELERKFR", "values": [
      {"measurement": "protein stability index", "setting": "parent: IOH13594_61, c terminus: a fixed tail appended", "result": 4.05}
    ]},
    {"protein": "FQTRQEMTSMSAELKMRAIQAEER", "values": [
      {"measurement": "protein stability index", "setting": "parent: IOH13594_66, c terminus: a fixed tail appended", "result": 4}
    ]},
    {"protein": "FVENGHSESSGQTHLEGDTVQIIC", "note": "[CFHR2 WT]", "values": [
      {"measurement": "protein stability index", "setting": "parent: IOH13657_16, c terminus: a fixed tail appended", "result": 2.78}
    ]},
    {"protein": "YFKCVQKDIQPYMRRMVATWMLEV", "note": "[CCND2 WT]", "values": [
      {"measurement": "protein stability index", "setting": "parent: IOH13739_8, c terminus: a fixed tail appended", "result": 2.47}
    ]},
    {"protein": "AVPTDEARAFAEKNGLSFIETSAL", "values": [
      {"measurement": "protein stability index", "setting": "[1]", "result": 2.34}
    ]},
    {"protein": "AVPTDEARAFAEKNNLSFIETSAL", "values": [
      {"measurement": "protein stability index", "setting": "[1]", "result": 2.72}
    ]},
    {"protein": "YQRVLPLPIFTPAKMGATKEERED", "note": "[TCAP WT]", "values": [
      {"measurement": "protein stability index", "setting": "parent: IOH13813_15, c terminus: a fixed tail appended", "result": 2.04}
    ]},
    {"protein": "FLDERLYCESHAKARVKPPEGYDV", "note": "[PDLIM4 WT]", "values": [
      {"measurement": "protein stability index", "setting": "parent: IOH13881_50, c terminus: a fixed tail appended", "result": 1.92}
    ]},
    {"protein": "FAEKGELRKSIFSESRKPTVSIME", "values": [
      {"measurement": "protein stability index", "setting": "parent: IOH13948_21, c terminus: a fixed tail appended", "result": 2.01}
    ]},
    {"protein": "RKCPVHGKTMELFCQTDQTCICYL", "values": [
      {"measurement": "protein stability index", "setting": "parent: IOH13948_38, c terminus: a fixed tail appended", "result": 2.05}
    ]},
    {"protein": "FWHDTLTEQLWRIFAGVHDEKAKP", "note": "[TLE6 WT]", "values": [
      {"measurement": "protein stability index", "setting": "parent: IOH13956_6, c terminus: a fixed tail appended", "result": 1.76}
    ]},
    {"protein": "ELPNIKREISETEAKALLKERQKK", "values": [
      {"measurement": "protein stability index", "setting": "parent: IOH14020_55, c terminus: a fixed tail appended", "result": 2.4}
    ]},
    {"protein": "FPSDHLGDLGDPFHLGLEDILMEE", "values": [
      {"measurement": "protein stability index", "setting": "parent: IOH14020_85, c terminus: a fixed tail appended", "result": 3.43}
    ]},
    {"protein": "FHLGLEDILMEEEEGVVGGLSGGA", "values": [
      {"measurement": "protein stability index", "setting": "parent: IOH14020_87, c terminus: a fixed tail appended", "result": 3.6}
    ]},
    {"protein": "RKADFKAGKALVISGREVFEFRPE", "values": [
      {"measurement": "protein stability index", "setting": "parent: IOH14032_47, c terminus: a fixed tail appended", "result": 2.82}
    ]},
    {"protein": "ENLFTGEDLDELEEELNTLDLEE", "values": [
      {"measurement": "protein stability index", "setting": "parent: IOH14032_69, c terminus: native", "result": 4.42}
    ]},
    {"protein": "NIYYYLEDDSMSVIEPVVENSGIL", "note": "[EFHC1 WT]", "values": [
      {"measurement": "protein stability index", "setting": "parent: IOH14055_21, c terminus: a fixed tail appended", "result": 2.15}
    ]},
    {"protein": "DINSVRYYPSGDAFASGSDDATCR", "values": [
      {"measurement": "protein stability index", "setting": "parent: IOH14466_41, c terminus: a fixed tail appended", "result": 3.92}
    ]},
    {"protein": "YYPSGDAFASGSDDATCRLYDLRA", "values": [
      {"measurement": "protein stability index", "setting": "parent: IOH14466_42, c terminus: a fixed tail appended", "result": 2.4}
    ]},
    {"protein": "RSEFTLMAKRIGKDLSNTFAKLEK", "values": [
      {"measurement": "protein stability index", "setting": "parent: IOH14584_7, c terminus: a fixed tail appended", "result": 2.17}
    ]},
    {"protein": "ESTIVELGSIFQQLAHMVKEQEET", "values": [
      {"measurement": "protein stability index", "setting": "parent: IOH14584_38, c terminus: a fixed tail appended", "result": 2.04}
    ]},
    {"protein": "AFLELPHGSGGSGYPAAPPAVPFA", "note": "[TBX6 WT]", "values": [
      {"measurement": "protein stability index", "setting": "parent: IOH14639_65, c terminus: a fixed tail appended", "result": 2.31}
    ]},
    {"protein": "KKVLNHGYDDDNHDYIVRSGERWL", "values": [
      {"measurement": "protein stability index", "setting": "parent: IOH14793_15, c terminus: a fixed tail appended", "result": 2.93}
    ]},
    {"protein": "ARKYFERLPGGGWTLRRTKELRKD", "values": [
      {"measurement": "protein stability index", "setting": "parent: IOH14793_58, c terminus: a fixed tail appended", "result": 3.49}
    ]},
    {"protein": "YQGPGTRRLQEVLGVQTGGPGGRR", "values": [
      {"measurement": "protein stability index", "setting": "parent: IOH14793_62, c terminus: a fixed tail appended", "result": 3.2}
    ]},
    {"protein": "RFQDLVLRMLEYEPAARISPLGAL", "values": [
      {"measurement": "protein stability index", "setting": "parent: IOH14793_68, c terminus: a fixed tail appended", "result": 2.31}
    ]},
    {"protein": "FIGEESVAAGEKSILTDNPTWIID", "note": "[IMPA1 WT]", "values": [
      {"measurement": "protein stability index", "setting": "parent: IOH21098_12, c terminus: a fixed tail appended", "result": 2.05}
    ]},
    {"protein": "EPAGSLRELGVWRSLLRLRATRAG", "values": [
      {"measurement": "protein stability index", "setting": "parent: IOH21460_10, c terminus: a fixed tail appended", "result": 2.6}
    ]},
    {"protein": "LTLKVLRSSSCGDTELLGQATLPV", "values": [
      {"measurement": "protein stability index", "setting": "parent: IOH21460_59, c terminus: a fixed tail appended", "result": 2.3}
    ]},
    {"protein": "FVLGKGRGAAAAGGPQRIPAHRFV", "values": [
      {"measurement": "protein stability index", "setting": "parent: IOH21551_13, c terminus: a fixed tail appended", "result": 1.88}
    ]},
    {"protein": "TSAEIELPDVEPAAFLALLRFLYS", "values": [
      {"measurement": "protein stability index", "setting": "parent: IOH21551_20, c terminus: a fixed tail appended", "result": 2}
    ]},
    {"protein": "IVGFGLYGSIHGPTDYQVNIQIIE", "values": [
      {"measurement": "protein stability index", "setting": "parent: IOH21551_61, c terminus: a fixed tail appended", "result": 3.17}
    ]},
    {"protein": "YGSIHGPTDYQVNIQIIEYEKKQT", "values": [
      {"measurement": "protein stability index", "setting": "parent: IOH21551_62, c terminus: a fixed tail appended", "result": 2.54}
    ]},
    {"protein": "LLTITKAHSNAISNCCFTFSGHFL", "note": "[WDR88 WT]", "values": [
      {"measurement": "protein stability index", "setting": "parent: IOH21600_45, c terminus: a fixed tail appended", "result": 3.1}
    ]},
    {"protein": "HPDPAPFCADNPSELPPPMERTGG", "values": [
      {"measurement": "protein stability index", "setting": "parent: IOH21682_15, c terminus: a fixed tail appended", "result": 2.73}
    ]},
    {"protein": "FCADNPSELPPPMERTGGIGDSRP", "values": [
      {"measurement": "protein stability index", "setting": "parent: IOH21682_16, c terminus: a fixed tail appended", "result": 4.54}
    ]},
    {"protein": "SDVVDWLYHNVEGFTDRREARKYA", "values": [
      {"measurement": "protein stability index", "setting": "parent: IOH21682_75, c terminus: a fixed tail appended", "result": 2.98}
    ]},
    {"protein": "YNPHPGFPELGYSYGGGSASSQHS", "values": [
      {"measurement": "protein stability index", "setting": "parent: IOH21682_92, c terminus: a fixed tail appended", "result": 2.58}
    ]},
    {"protein": "FPELGYSYGGGSASSQHSEGSRSS", "values": [
      {"measurement": "protein stability index", "setting": "parent: IOH21682_93, c terminus: a fixed tail appended", "result": 3.14}
    ]},
    {"protein": "AKAADSPTRNDLESGLGHFSLRVH", "values": [
      {"measurement": "protein stability index", "setting": "parent: IOH21711_5, c terminus: a fixed tail appended", "result": 3.12}
    ]},
    {"protein": "VHTGCHKKLGPEARRPRTRWGKN", "values": [
      {"measurement": "protein stability index", "setting": "parent: IOH21711_9, c terminus: native", "result": 1.97}
    ]},
    {"protein": "FEDEVKRLGWQQQAELQELEERLQ", "note": "[KIAA0774 WT]", "values": [
      {"measurement": "protein stability index", "setting": "parent: IOH21722_11, c terminus: a fixed tail appended", "result": 4.08}
    ]},
    {"protein": "FFIRTSDSFDKFDFCEPSFVTGNC", "note": "[PCMTD2 WT]", "values": [
      {"measurement": "protein stability index", "setting": "parent: IOH21782_22, c terminus: a fixed tail appended", "result": 2.15}
    ]},
    {"protein": "EGCGPPLRRWLRANLAASGGYAIA", "note": "[TSPAN10 WT]", "values": [
      {"measurement": "protein stability index", "setting": "parent: IOH21852_47, c terminus: a fixed tail appended", "result": 1.89}
    ]},
    {"protein": "RTFGPPPSLSPGAFSYSSSSRFSS", "values": [
      {"measurement": "protein stability index", "setting": "parent: IOH21924_4, c terminus: a fixed tail appended", "result": 3.3}
    ]},
    {"protein": "DEIEFLKKLHEEELRDLQVSVESQ", "values": [
      {"measurement": "protein stability index", "setting": "parent: IOH21924_38, c terminus: a fixed tail appended", "result": 4.78}
    ]},
    {"protein": "PSNRSFFSEIISSISDVKFSHSGR", "values": [
      {"measurement": "protein stability index", "setting": "parent: IOH22211_46, c terminus: a fixed tail appended", "result": 2.33}
    ]},
    {"protein": "RNTKRDVTLEASRENSKPRAILKP", "values": [
      {"measurement": "protein stability index", "setting": "parent: IOH22211_62, c terminus: a fixed tail appended", "result": 4.59}
    ]},
    {"protein": "PSNGRIDIKQLIAKKIKLTAEAEE", "values": [
      {"measurement": "protein stability index", "setting": "parent: IOH22371_7, c terminus: a fixed tail appended", "result": 3.15}
    ]},
    {"protein": "VYYIFERLCAPLFRNIKQEPFSAR", "values": [
      {"measurement": "protein stability index", "setting": "parent: IOH22371_57, c terminus: a fixed tail appended", "result": 2.19}
    ]},
    {"protein": "GVLILFLTFFAFLHCWLNAFAEML", "values": [
      {"measurement": "protein stability index", "setting": "parent: IOH22371_63, c terminus: a fixed tail appended", "result": 2.73}
    ]},
    {"protein": "KSAAMLAVFAVSAVVHEYALAVCL", "values": [
      {"measurement": "protein stability index", "setting": "parent: IOH22371_75, c terminus: a fixed tail appended", "result": 3.11}
    ]}
  ]
}
